T1: IFF05588
T1 chain: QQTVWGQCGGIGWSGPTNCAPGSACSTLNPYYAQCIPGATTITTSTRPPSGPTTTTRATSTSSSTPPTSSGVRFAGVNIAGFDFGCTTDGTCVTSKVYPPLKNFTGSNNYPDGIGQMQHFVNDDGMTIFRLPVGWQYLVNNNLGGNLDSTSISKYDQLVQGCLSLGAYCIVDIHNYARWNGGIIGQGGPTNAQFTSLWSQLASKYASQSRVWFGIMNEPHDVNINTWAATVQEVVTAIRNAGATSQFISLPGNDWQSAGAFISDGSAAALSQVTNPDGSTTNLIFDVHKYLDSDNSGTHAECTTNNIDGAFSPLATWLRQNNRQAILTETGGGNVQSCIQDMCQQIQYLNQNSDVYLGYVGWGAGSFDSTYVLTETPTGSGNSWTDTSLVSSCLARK


Target: T1, IFF05588

Protein | Relative late peak area (centered, scaled, averaged over 5, 10 and 15 min) | Relative late peak area (centered, scaled, averaged over doses, 24 h; sample diluted 1-fold) | modification of IFF05588 (reverse phase chromatography, 5 to 15 min) | Relative late peak area (reverse phase chromatography, 24 h) | Relative late peak area (centered, scaled, averaged over doses, 24 h; sample diluted 2-fold) | modification of IFF05588 (reverse phase chromatography, 24 h)
IFF21356 (protein) GNPDKPEVNPHIPYDRLESDLRNNLHPTQSTWDYWGAGWIPQGCKDLANTYHLNPADFTIFNVHYTDCSASWTFCRHKNAGASEIDMIDIFGRLPVHMRSYIRHLVATPGLNDGAAAWTWSSGDCVVESAPNLATLVHEVSHSLDWHALPQYQQPFSSSSIWQDNYNQDSATPTGYGRTNWMENFAETGMVGVYDKVVPGGIGNIEPNWNAIFHQYATYQGYLGDKIIPGGSCANRFDDTPPVAMSNSAKVKVNSPKPGTRIDFAGTNITQIIPSKEVEGLYIKG | -1.04 | -1.52 | All samples containing proteins related to IFF05497 except seven (IFF21355, IFF21358, IFF21356, IFF21361, IFF21370, IFF21357 and IFF21353) are able to modify IFF05588 under these reaction conditions |  |  | 
IFF21377 (protein) KRLDKPALTPDLGYLLQGSVDNLHPTHSTWDKWGDGWIPEDCKSMAQNPNLNLNLNPSDFEVYNVHYDDCGDAWVLCRHKDSPVDLVTTVDIFGRLPVRMRDWVRHVMTVPGNDYAFNLNGNIVFSGRTSTNMDVAIHETGHSLDLLKAYGEVLSSSQTWIDNYNQDSNVPDNYAQSSQIENVAQNTVVSVFDKIVPGGFGSVQPNWHNIFHQYATLKSKAGDLILPGGQCDRRLKDSSPIPMDSNANEQGLLSWKPRTSFVNTYNNIVTNFEPFNTAEHCKESFS | -0.99 | -1.45 |  |  |  | 
IFF21369 (protein) QLPKPIMSPAVPFDHTDPILYQHLGSTPSTYDQWGWGWLPLRCKAVAEARGLNPYDVNVYNVHYEDCDQAWVMCRHHGAQVSLDQMIDNFGRLPVRLRNIVRHQFAVPGEGLGAYTYSDLGDIVFTGDIGHLLRFWVHEAGHAVDRNINPSQGDYSSSQAWINEYNKDGYICDEYAKNNMAENFAQEVIVALFDKVVPGGIGTIVPNWNDIFHQYATVQAVMGDMLIPGGFCNRHFADDTIVCMGPAAGCENSKRDYEGLNSTETYTAEAEEPTVCTLA | -1 | -1.42 |  |  |  | 
IFF21353 (protein) NLDKPVIQPNFPSLAPGLMSHLAPTHSTWDDWGAGWIPQDCKSMVQGAGFSPNDIIPFNIHYDDCGQTWTFCRHKNSPLSELQILDMFGRLPVRMRSFVRHLVFVPGNRSAGSNGDNILVVGDGDITLFAHEIGHSLDSHAFDPSYGVPFSTGNVWVSNYNLDSAVSDSYAQTSQQENFAQETVISLFDKVVPGGIGTIQPNWQAIFHQYATLQGYIGNVIIPGGTCTHRLTDSPPVPMSGSAKSRRGLGPKPEVSLSPEVKEIEAIPMESSITMTSFDEHGKPNGTYVIHLK | -1.06 | -1.31 | All samples containing proteins related to IFF05497 except seven (IFF21355, IFF21358, IFF21356, IFF21361, IFF21370, IFF21357 and IFF21353) are able to modify IFF05588 under these reaction conditions | 0.25 |  | 
IFF21357 (protein) GNPDKPEVNPHIPYDRLESDLRNNLHPTQSTWDYWGAGWIPQGCKDLANTYHLNPADFTVFNVHYTDCSASWTFCRHKDAGASEIDMIDMLGRLPVRMRSYTRHLMATPGLNDGAAAWTWSTGDTVVESAPNLATLVHEVSHSLDWHALPQYQQPFSSSSIWQDNYNQDSATPTGYGRTNWMENFAETGMVGVYDKVVPGGIGNIESNWNSIFHQYATYQGYLGDKIIPGGSCANRFDDTAPVTMSNSAKFRVTSPKPETGIDFAGKNITQIIPSKEVEGLFIKG | -1.05 | -1.49 | All samples containing proteins related to IFF05497 except seven (IFF21355, IFF21358, IFF21356, IFF21361, IFF21370, IFF21357 and IFF21353) are able to modify IFF05588 under these reaction conditions |  |  | 
IFF21371 (protein) QLDKPLVVPAMPALDAGLLKHLAAPAYTTSQWEWGWIPQWCKDEAVSEKLSPYDIEVFNIHYNDCKDVWIFCRHNAAQASQKDMIDIFGRMPVRTRQFVRHILAVPGTISAGSSGDNIALRGTGPNLISVLIHEAAHSMDSHAVDSLSKPFHNTAEWLAAYKADSAISDDYAQTSQSENFAQTVVIAVFDKVVPGGIGSVQPSWAAIKNQYTTAQKWLGDLIIPGGTCTARLENSPVASMGRASGNGARMRRRARGGKPDVSLSKDTKVIPAIAGKKIHITSFAQ | -0.95 | -1.12 |  |  |  | 
IFF21355 (protein) GNPDKPEVSPRIPYDRLESGLRNNLHPTQSTWDYWGAGWIPQGCKDLAKTYHLNPADFTIFNVHYTDCSASWTFCRHKDAGASEIDMIDIFGRLPVRMRSYIRHLMATPGLNDGAAAWTWSSGDCVVESAPNLATLVHEVSHSLDWHALPQYQQPFSSSSIWQDNYNQDSATPTGYGRTNWMENFAETGTVGVYDKVVPGGIGNIEPNWNAIFHQYATYQGYLGDKIIPGGSCANRFEDTPPVAMSNSVKFKITSPKPEIGIDFVGKNITQIIPSKEVEGLYIKG | -1.02 | -1.52 | All samples containing proteins related to IFF05497 except seven (IFF21355, IFF21358, IFF21356, IFF21361, IFF21370, IFF21357 and IFF21353) are able to modify IFF05588 under these reaction conditions |  |  | 
IFF21364 (protein) QLDKPALTDNLDYLLDGNVANLPSNGGPYWGKWEDGLIPADCKSIAESQGLNPTDFEVYDIFFDDCQDGWSFCRHKDSSDSFETLVDTFGRVPVRMRSWVRHILTIPGNNWAFNSNGNIAFSGTTSSNLDVALHETGHSLDLLGAYGDGALSSSQEWEDAYNADSNVPDNYAQSNQVENVAQNTVVGIYDKVVPGGFPGVQPNYANIQNQYTLLQDKAGEQIIPGGTCDRHLENSDTVSMSGSSSKRDVRAAKARAASHDSALKGKYSNIVKDFKPFNSQDFHH | -0.57 |  |  | 0.49 | -0.28 | 
IFF21368 (protein) QLSKPVMNPPVPFSDLDPTLFKYLKSTPHNRDQWGWGWLPARCKAIADQQGLNAYDIDVYNVHYSDCNQAWVMCRHHLSPLSIDTMAENFGRIPVRMRNFVRVQFALPQKDSSFGGATFSDLGDILWYGDVSKTLRFWIHEAGHTIDRNINPGSNDDYSKSSAWLNEYNKDGFICDDYAKNNAAENFAQEVIVALFDKVVPGGLGSVSPNWNSIFHQYATVQSKLGDILIPGGTCNRKFADDTIVCMGPAANCNSKANAKFRLKADKTQDAAIVAASDNPPIEDLFEVEE | -1 | -1.44 |  |  |  | 
IFF21362 (protein) GSPDKPEMNPAFDYGRFEAGLRDNLHPTHSTWDYWGPGWIPQSCKDIATSHGLSPNDFTIFNVHYDDCQEGWTFCRHKDAGASEIDMIDIFGRAPVHMRSFIRHLVATPGLHDGAAAFTFSNGDCVVESAPDLSVMLHEMSHSLDWHALPQYPSPFSSSNEWQSNYAQDSNTPTAYGRTNWLEDFAEAGKVGVFDKVVPGGFGSVAGNWGQVFHQYATYQGYLGDTILPGGTCDKRFPNSETVPMAGNSKRMAADLGEKPDNTIKADNMTLIQMRPEIEGQVSICEHQH | -0.99 | -1.52 |  | 0.23 |  | All samples containing proteins related to IFF05497 except one (IFF21362) are able to modify IFF05588 under these reaction conditions
IFF21363 (protein) QLDKPVIDPEFPSGALDQGLNDHLRAPGSSWDAWEEGWIPEDCKNMIEGTEFSVQDITPFNIHYDDCEDPWVFCRHKDSPLSEDYIVDAFGKMPVRFRSFVRHMLFVPGTESAGSSGDNVQMNGDLPITVFIHETAHSFDGHHGLPDIEGGFSASQAWLDAYNADSAVTDDYGQTSQAENFAQQTVVALFDSNVPDGVASIQPSWQSIENQFRLIQDRAADILRPDGTCTSRLENSAPVEKGGSARLRPSASTKPDVSLKGKIKVIEPVPMGAEMEMAQYDASGKVVGTKVVKVGGRE | -0.43 |  |  | 0.3 | -0.13 | 
IFF21331 (protein) ALDKPIIDPEFPGGGLASLGQGLLDNLAPTQSTYADWEAGFIPQDCKTIAEGNSLSPLDIIPFNITYTDCSDPWIFCRHKDSPLSEVDMIDLFGRMPVGMRSFIRHIISIPGDKSAGSNGDNVQMNGDVDITVFIHETGHSLDSHGFDASYGVPFSTGQVWTDNYNLDSAVTDSYAQSSQQENFAQETVVALYDKVVPGGVGTIQPNWQAIQHQYETIQGYAGGIIIPGGTCTNRLPNSPAVPMSDSAKYRVNMAHKPDVSLSNYVTEIKSIPMEPIMKLTHYDAAGRPIGKSTIDLST | -0.86 | -0.21 |  |  |  | 
IFF21380 (protein) QQLDKPALTNDLDYLLEGNVNNLPSNGGPYWGKWEAGLMPADCKSIAESQDLDPTDFEVWDIFFDDCQDGWSFCRHVDSADSFETLVDTFGRIPVRMRSWIRHILTIPGDNWAFNSNGNIAFSGTTSANLDVALHETGHSLDLLGAYGSEALSSTQEWLDAYDADSNVPDNYARSNQVENVAQNTVVGIYDKVVPGGFPGVQPNYQNIENQYTLLQDKAGDQIIPGGTCDRHLENSETVSASGSSKKARDSVNKKSRAVAHDPAFKGTYTNIVKDFVPFNTQDYHH | -0.71 | -0.02 |  | 0.61 |  | 

Source: patent US20250051821
